The record followed here is PMC12285722, “M6A-dependent RNA condensation underlies FUS autoregulation and can be harnessed for ALS therapy development”.

The data set addresses FUS (recombinant, His-tagged) (human, UniProt P35637 1-526). Nature of the data set: EMSA; 250 nM RNA, 0-7.5 uM FUS (Methods: 7.0); EMSA: 50 mM Tris-HCl pH 7.5, 100 mM KCl, 2 mM MgCl2, 100 mM beta-mercaptoethanol, 0.1 mg/ml BSA, 30 min RT, 6% native gel in TBE; CONA: lysate in 1% Triton X-100/PBS, beads washed in 20 mM Hepes pH 7.5, 0.3 M NaCl, 0.01% Triton X-100, 5 mM MgCl2, 2 h RT. The conditions noted are these: protein: recombinant; tags: His; label: 5' Cy5; 3' biotin-TEG. For orientation: A gel shift assay detects complexes by their altered migration in electrophoresis.

Chain of FUS (recombinant, His-tagged) (P35637 whole entry): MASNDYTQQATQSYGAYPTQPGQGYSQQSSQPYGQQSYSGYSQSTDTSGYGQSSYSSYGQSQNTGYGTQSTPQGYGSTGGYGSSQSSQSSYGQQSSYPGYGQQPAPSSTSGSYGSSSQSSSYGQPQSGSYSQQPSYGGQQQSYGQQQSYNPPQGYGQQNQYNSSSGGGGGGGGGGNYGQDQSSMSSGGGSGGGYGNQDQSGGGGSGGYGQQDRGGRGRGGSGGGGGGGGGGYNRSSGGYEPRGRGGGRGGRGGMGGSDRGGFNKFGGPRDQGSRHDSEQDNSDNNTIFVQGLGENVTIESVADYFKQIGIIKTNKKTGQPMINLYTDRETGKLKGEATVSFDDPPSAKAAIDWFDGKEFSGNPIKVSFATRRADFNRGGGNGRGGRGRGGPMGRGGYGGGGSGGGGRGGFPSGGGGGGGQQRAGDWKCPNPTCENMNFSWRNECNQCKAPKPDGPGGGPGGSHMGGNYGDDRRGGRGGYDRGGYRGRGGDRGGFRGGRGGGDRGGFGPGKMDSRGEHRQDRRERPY

B1: 4xDRACH (ssRNA)
RNA: GGACUCGGACUUGGACUCUGGACUUUG
For the molecule B1, the binding result is “binds”.
